{"source": "the nanobody polyreactivity screen of Harvey et al. (2022)", "data": [{"test": "yeast display, Sf9 membrane polyspecificity reagent, FACS + sequencing; frameworks hold sequencing errors", "in_short": "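Nanobodies from a synthetic yeast display library (Saccharomyces cerevisiae BJ5465), induced 36–48 hours with galactose, were stained 1 hour at 4 °C with 10% biotinylated, detergent-solubilized Sf9 membrane reagent, enriched on streptavidin microbeads, then FACS-sorted. Anti-HA (expression) and streptavidin (reagent binding) fluorescence set low and high (top ~1%) gates. Polyreactivity labels come from the gate of origin. Genes were colony-PCR amplified, MiSeq 2 × 250 sequenced and filtered by CDR length.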", "values": [{"sequence": "QVQLVESGGGLVQAGGSLRLSCAASGRTFAVNGKGWYRPAPGKERELVAAISSGGSTNYADSVKARFTISRDNAKNTVYLQLNSLKPEDTAVYYCAADYTRAHISYYYWGQGTQVTVSS", "polyreactivity (PSR sort gate)": "high polyreactivity"}, {"sequence": "QVHLVESAGGLVQAGGSLRLSCAASGRIFTPYAMGWYRQAPGKERELVAVIRDGSTYYADSVKGRFTISRDNAKNTVYLQMNSLKPEDSAVYYCRYDIWVWWSGAYDYWGQGTQVTVSS", "polyreactivity (PSR sort gate)": "low polyreactivity"}, {"sequence": "QVQLVESGGGLVQAGGSLRLSCAASGSIFGRNDMGWYRQAPGKERELVARITRGGSTNYADSVKGRFTISRDNAKNTVYLQMNSLKPEDTAVYYCAAGARQYRGVPDRYGYWGQGTQVTVSS", "polyreactivity (PSR sort gate)": "low polyreactivity"}, {"sequence": "QVQLVESGGGLVQAGASLRLSCAASGRTFYQNGMGWYRQAPGKERELVAVISSGGNTDYADSVKGRFTMSRDNAKNTVYLQMNSLKPEDTAVYYCNADVRPAYTYDYWGQGTQVTVSS", "polyreactivity (PSR sort gate)": "low polyreactivity"}, {"sequence": "QVQLVESGGGLVQAGGSLRLSCAASGFTFRHYTMGWYRQAPGKERELVAAISSSGVTTYYADSVKGRFTISRDNAKNTVYLQMISLKPEDTAVYYCADRPYYYYVDYDYWGLGTQVTVSS", "polyreactivity (PSR sort gate)": "high polyreactivity"}, {"sequence": "QVQLVESGGGLVQAGGSLRLSCAASGSTFYYNAMRWYRQAPGKERELVAAITGSGDSTYYADSVKGRFTISRDNAKNTVYLQMNSLKPEDTAVYYCAADTYSTYWGQGTQVTVSS", "polyreactivity (PSR sort gate)": "low polyreactivity"}, {"sequence": "QVQLVESGGGLVHAGGSLRLSCAASGRTFNYYAMGWYRQAPGKERELVAAISKSTGNTYYADSVKGRFTISRDNAKNTVYLQMNSLKPEDTAVYYCAAKKRGSHVYQYDYCGQGTQVTVSS", "polyreactivity (PSR sort gate)": "low polyreactivity"}, {"sequence": "QVQLVESGGGLVQAGGSLRLSCAASGLTFPPYAMGWYRQAPGKERELVAAISWNGGNTYYADSVKGRFTISRDNAKNTVYLQMNSLKPEDTAVYYCAAKRGTQGMYYWGQGTQVTVSS", "polyreactivity (PSR sort gate)": "high polyreactivity"}, {"sequence": "QVQLVESGGGLVQAGGSLRLSCAASGFTFAKYAMGWSRQAPGKERELVAAIRSRGDTTYYADSVKGRFTISRDNAKNTVYFQMNSLKPEDTAVYYCAARSYFLVDCSRYDYWGQGSQVTVSS", "polyreactivity (PSR sort gate)": "high polyreactivity"}, {"sequence": "QVQLVESGGGLVQAGGSLRLSCAASGRTFQQNAMGWYRQAPGKERELVAAINSRGGRTYYADSVKGRFTISRDTAKNTVYLQMNSLKPEDTAVYYCAARYYWGQGTQVTVSS", "polyreactivity (PSR sort gate)": "high polyreactivity"}, {"sequence": "QLQLVESGGGLVQAGGSLRISCAASRSTFENNAMGWYRQAPGKERELVASSTNYADSVKGRFTISRDNAKNTVYLQMNSLKPEDTAVYYCAREQGVNRNHDYWGQATQVTVSS", "polyreactivity (PSR sort gate)": "low polyreactivity"}, {"sequence": "QDQLVESRGGLVQAGGSLRLSCAASGRTFISNAMGWYRQAPGKERELVAADISWSGGSTYYADSVKGRFTISRDNAKNTVYLQMNIMKPEDTAVYYCNTVIRPYLAYTWSEIFDYWGQGTQVNVSS", "polyreactivity (PSR sort gate)": "low polyreactivity"}, {"sequence": "QVQLVEYVGGLVQAGGSLRLSCAASGRIFQYYARGWYRQAPGKERELVAAINSSGGRTYYADSVKGRFTISRDNAKNTVYLQMNSLKPEDTAVYDCNAVLSTRGMDYWGQGTQVTVSS", "polyreactivity (PSR sort gate)": "high polyreactivity"}, {"sequence": "QVQLVESGGGVVQAGGSLRLSCAASGFTFAYYATGWYRQAPGKERELVAAISRSGGSTYYADSVKGRFTISRDNAKNTVYLHMNSLKPEDTAVYYCARDQRKLGADFDSWGQRTQVTVSS", "polyreactivity (PSR sort gate)": "high polyreactivity"}, {"sequence": "QVQLVESGGGLVQAGGSLRLSCAASGITFTENVMGWYRQAPGKERELVAGISRSGGITYYADSVKGRFTISRDNAKNTVYLQMNSLKPEDTAVYYCAAEEAYRSRRGGFDYWGQGTQVTVSS", "polyreactivity (PSR sort gate)": "high polyreactivity"}, {"sequence": "QVQLVESVGGLVQAGGSLRLSCAASGSTSSLYAMGWYRQAPGKERELVASITSRGGSTYYAVSVKGRFTISRDNAKNTVYLLMNSLKPEDTAVYYCAADASRPDRWYLWKYYYWGQGTQVTVSS", "polyreactivity (PSR sort gate)": "high polyreactivity"}, {"sequence": "QVLLQESGGGLVQAGGSLRLGCAASGTISPAYYMGRYHQAPGKEREFVAAITYGTNTYYADSVKGRFTISRDNAKNSVYLQMNSLKPEDTAVYYCSATAGYNGAHDYWGQGTQVTVSS", "polyreactivity (PSR sort gate)": "low polyreactivity"}, {"sequence": "QVQLVESGGGLVQAGGSLRLSCAASGGTITSYAMGWYRQAPGKERELVAAITRSGGSTYYADSVKGRFTISRDNAKNTVYLQMNSLKPEDTAVYYCAARYSTYPWYNSWGQGTQVTVSS", "polyreactivity (PSR sort gate)": "high polyreactivity"}, {"sequence": "QVQLVESGGGLVQAGGSLRLSCAASGSTFSANTMGWYRPAPGKERELLAAISSSGVGTRYADSVKGRFTISRDTAKNNVYLQMKSLKPEDTAVYYCAADYRPTVITRNDYWGQGTQVTVSS", "polyreactivity (PSR sort gate)": "low polyreactivity"}, {"sequence": "QVQLVESGVGLLQEGGSLSLSCAASGRTFRWYGMGWYSQAPGKEREFVAAISFRGGTTYYADSVKGRFTISRDNAKNTVYLQMNSLKPEDTAVYYCAARSGYYTSDYKYYYWGQGTQVTVSS", "polyreactivity (PSR sort gate)": "high polyreactivity"}, {"sequence": "QVQLVESGGGLVQAGGSLPLSCAASGRTFGSYVMRWYRQAPGKERELVATISRRGGTTYYADSVKGRFTISRDNAKNTVYLQMNSLKPEDTAVYYCAAKYFATRYDYWGQGTQVTVSS", "polyreactivity (PSR sort gate)": "high polyreactivity"}, {"sequence": "QDQLVETGGGLVQAGGSLRISCADSGFTFGVNAMGWYREAPGKERELVAVITSGGNTYYADSVKGRFTISRDNAKNTDYCQMNSLKPEDTAVYYCAAYGRDSWDRDYWGQGTQVTVSS", "polyreactivity (PSR sort gate)": "low polyreactivity"}]}]}
